In patent US20030226164, “Lambda integrase mediated recombination in plants” (Syngenta Participations AG, published 2003):
Positions count from the first letter of the chain named.

T1: Lambda Int-h (SynInt-h) E174K (Bacteriophage lambda) (UniProt P03700)
T1 sequence: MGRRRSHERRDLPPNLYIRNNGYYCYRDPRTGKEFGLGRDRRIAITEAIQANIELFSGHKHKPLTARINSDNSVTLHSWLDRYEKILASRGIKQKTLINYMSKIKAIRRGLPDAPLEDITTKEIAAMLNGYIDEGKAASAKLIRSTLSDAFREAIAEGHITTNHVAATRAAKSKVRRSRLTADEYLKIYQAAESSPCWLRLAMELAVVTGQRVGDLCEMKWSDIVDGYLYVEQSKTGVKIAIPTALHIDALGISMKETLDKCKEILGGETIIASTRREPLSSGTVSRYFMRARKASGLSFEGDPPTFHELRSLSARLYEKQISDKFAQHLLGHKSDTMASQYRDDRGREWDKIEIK

T2: Lambda Int-h/218 E174K,E218K (Bacteriophage lambda) (UniProt P03700)
T2 sequence: T1 sequence with E218K

T3: Lambda Int-h (SynInt-h) (Bacteriophage lambda, UniProt P03700 SEQ:1-356, E174K)
T3 sequence: T1 sequence

T4: Lambda Int-h/218 (Bacteriophage lambda, UniProt P03700 SEQ:1-356, E174K,E218K)
T4 sequence: T1 sequence with E218K

B1: attB (dsDNA)
DNA 1: TGAAGCCTGCTTTTTTATACTAACTTGAGCG
DNA 2: CGCTCAAGTTAGTATAAAAAAGCAGGCTTCA

Columns and labels:
[1] = target: T1, Lambda Int-h (SynInt-h) E174K (Bacteriophage lambda); assay: cell_activity; settings: attP x attB without IHF, maize BMS cells
[2] = target: T2, Lambda Int-h/218 E174K,E218K (Bacteriophage lambda); assay: cell_activity; settings: attP x attB without IHF, maize BMS cells
[3] = target: T3, Lambda Int-h (SynInt-h); assay: cell_activity; attB x attP without IHF, maize BMS cells; settings: chain copies: 4
Procedure: (§1) Bombarded BMS cells are incubated in the dark at 28° C. for 48 hours. After incubation, the cells are assayed for luciferase expression levels.

[4] = target: T4, Lambda Int-h/218; assay: as above; settings: chain copies: 4
Procedure: as §1

Row | Molecule | activity (fold luciferase over substrate alone) [1] | activity (fold luciferase over substrate alone) [2] | activity [3] | activity [4]
1 | TCTGTTACAGGTCACTAATACCATCTAAGTAGTTGATTCATAGTGACTGCATATGTTGTGTTTTACAGTATTATGTAGTCTGTTTTTTATGCAAAATCTAATTTAATATATTGATATTTATATCATTTTACGTTTCTCGTTCAGCTTTTTTATACTAAGTTGGCATTATAAAAAAGCATTGCTTATCAATTTGTTGCAACGAACAGGTCACTATCAGTCAAAATAAAATCATTATTTGATTTC (double strand) [attP] | 15 | 49 |  | 
2 | B1 |  |  | 15 fold luciferase over substrate alone | 49 fold luciferase over substrate alone
